In patent publication US20260028391A1:
Residue numbers refer to the chain shown, from its start. Names and notes keep the numbering of the source.

B1: MPK157 (antibody, V domains shown)
VH: EVQLVESGGGLVKPGGSLRLSCSASGFTLSGYNMNWVRQAPGKGLEWISYISASSSYINYADSVKGRFTISRDNGRSSLYLQMNSLRAEDTAVYFCTTQAELPGWFDPWGQGTLVTVSS
VL: QSVLTQPPSMSGAPGQRVTISCTGSSSNIGAGYDVNWYRQLPGTAPQLLIYRNTNRPSGVPDRFSGSNSGTSASLAITGLQADDEAHYYCQSYDRSLSGWVFGGGTKLTVL
B2: RSD5-FR-GL-rIgG1 (antibody, V domains shown)
VH: QVQLVESGGGVVQPGRSLRLSCAASGFAFNNFAMHWVRQAPGKGLEWVAVVSYDGTSPYYADSVKGRFTISRDNSKNTLYLQMNSLRAEDTAVYYCARGLGSGSYSWIGYFYAMDVWGQGTTVTVSS
VL: QSALTQPASVSGSPGQSITISCTGTSSDVGGYVYVSWYQQHPGKAPKLMIYDVSNRPSGVSNRFSGSKSGNTASLTISGLQAEDEADYYCISYTDRNTVVFGGGTKLTVL
B3: MPK155 (antibody, V domains shown)
VH: EVQLVESGGGLVKPGGSLRLSCEASGISLSGYYMIWIRQAPGKGLEWISSISSSSNYIDYADSVRGRFTISRHNGQNTLYLQMNSLRVEDTAVYFCATEQTPSPGPFDLWGQGILVTVSS
VL: QSVLTQPPSVSGAPGQRVTIFCTGTSSNLGAGYDVHWYQQFPGTSPKLLIYRYTNRPSGVPDRFSGSKSGSSASLAIAGLQAEDEADYYCQSYDRSVSGWVFGGGTKLTVL
B4: MPK169-v2 (antibody, V domains shown)
VH: EVQLVQSGAEVKKPGESLTISCQTSGYSFINYWIGWVRQMPGKGLEWMGVIYPFDSDTEYSPSFRGHVTISADKSINTAYLQWNSLGASDTAMYYCARFTFGIALVSGDVNGEGHAFDVWGRGTLVTVSS
VL: EIVLTQSPPTLSVSPGQRATLSCRASQSVADKLAWYQQRPGQAPRLLIYGASSRATGVPARFSGSGSETEFTLTITSLQSEDFALYYCHQYNNWPHAFGQGTRLVIK
B5: MPK127 (antibody, V domains shown)
VH: QVQLVISGGGLVKPGGSLRLSCAASGFRIDSFSLNWVRQAPGKGLEWLASVSASSSYIDYRDSVAGRFTISRDNAQNSLYLQMDTLRAEDTAVYYCARTNGYETGSFDVWGQGTLVTVAS
VL: QSVLTQPPSVSGAPGQRVTISCTGSSSNIGAGYDVHWYQQLPGKAPKLLINANNNRPSGVPDRFSGSNSGTSASLAITGLQAEDEADYYCQSYDKTLSGYVFGLGTTVTVL
B6: MPH12 VH-FRGL / MPH12 VL-FRGL-D25E (antibody, V domains shown)
VH: QVQLVESGGGLVKPGGSLRLSCAASGFTFSGFYMKWIRQAPGKGLEWVSSISASGSYTNYADSVEGRFTISRDNAKNSLYLQMNSLRAEDTAVYYCARGDSYCGASACHGEFFHKWGQGTLVTVSS
VL: QSVLTQPPSVSGAPGQRVTISCTGSESNIGADFDVHWYQQLPGTAPKLLIYGNINRPSGVPDRFSGSKSGTSASLAITGLQAEDEADYYCQSYDRSLHYVFGTGTKVTVL
B7: MPH12-v34 (VH-FRGL-S63A/VL-FRGL-D25S) (antibody, V domains shown)
VH: B6 VH with S63A
VL: B6 VL with E26S
B8: MPH12-v29 (VH-FRGL-D62E/VL-S26A) (antibody, V domains shown)
VH: B6 VH with D62E
VL: B6 VL with E26D, S27A, K68R, S74F, G79R, T103A
B9: MPH12 VH-FRGL-S63A / MPH12 VL-FRGL-D25E (antibody, V domains shown)
VH: B6 VH with S63A
VL: B6 VL
B10: MPH12-v17 (VH-FRGL-D62E/VL-D25S) (antibody, V domains shown)
VH: B6 VH with D62E
VL: B6 VL with E26S, K68R, S74F, G79R, T103A
B11: MPH12 VH / MPH12 VL-FRGL-D25E (antibody, V domains shown)
VH: B6 VH with A23V, I70V, Y80F, Q82L, N84S
VL: B6 VL
B12: MPH12-v35 (VH-FRGL-D62E/VL-FRGL-D25S) (antibody, V domains shown)
VH: B6 VH with D62E
VL: B6 VL with E26S
B13: MPK152 (antibody, V domains shown)
VH: EVQLVESGGGLVKPGGSLRLSCAASGLTISGYYMIWIRQAPGKGLEWISYISGSSSYTNYADSVKGRFTISRDNGQNTLFLQMDSLRVEDTAVYFCATEETPSPGPFGLWGQGTLVTVSS
VL: QSVVTQPPSVSGAPGQRVTISCTGTSSNIGAGYDVHWYQQFPGTSPKLLIFRNTNRPSGVPDRFSGSTSGSSASLAITGLQTEDEADYYCQSYDRSLDGWVFGGGTELTVL
B14: MPK132-v1 (antibody, V domains shown)
VH: B3 VH with R65K, D108E
VL: B3 VL with L4V, L29I, A31T, Y53N
B15: MPK153 (antibody, V domains shown)
VH: EVHLVESGGGLVKPGGSLRLSCAASGFTFTGYFMIWIRQAPGKGLEWISYISSSSNYINYADSVKGRFTISRDNGQNTLYLQMNSLRPDDTAVYYCATEQVPSPGPFDLWGQGTLVTVSS
VL: B13 VL with V4L, T19I, T44A, N55D, T68K, T78A, T82A, E107K, L108V
B16: MPK129 (antibody, V domains shown)
VH: B3 VH with I27F, S53G, S55G, R65K, H73D, Q76H, F95Y, L109H, I114T
VL: B3 VL with S2T, L4V, F21S, L29I, A31T, Y53N
B17: MPK177 (antibody, V domains shown)
VH: EVQLVQSGAEVKKPGESLKISCQVSGYSFMNYWVGWVRQMPGKGLEWMGIIYPFDSDTIYSPSFQGHVTISADTSITTAYLHWSSLKASDTATYYCARFTFGIAVVADGLSGDGEAFDIWGQGTVVTVSS
VL: DIVMTQTPATLSVSPGERATLSCRASQSVAGKLAWYQQRPGQTPRLLIYGASTRATGVPARFSGSGSETEFTLTISSLQSEDFAVYYCQQYSSWPHAFGQGTRLDIK
B18: MPK195 (antibody, V domains shown)
VH: EVQLVQSGAAVKKPGESLKISCRGSGYSFINYWIGWVRQMPGKGLEWMGVIYPFDSDTQYSPSFQGHVTISADKSINTAYLQWDSLKAADTAIYYCARFTFGIALSTADVYGEGQAFDIWGPGTMVTVSS
VL: B17 VL with D1E, M4L, T7S, L33I, T43A, S93N, H96Q, Q100P, I106M
B19: MPK171-v1 (antibody, V domains shown)
VH: QVQLVQSGAEVKKPGESLKISCKGSGYSFINYWIGWVRQMPGKGLEWMGIIYPFDSDTKYSPSFQGHVTISADKSINTAYVQWSSLKASDTAMYYCARFTFGIAVVTDDVSGEGHAFDIWGQGTMVTVSS
VL: QSVLTQPPSVSGAPGQRVTISCAGSSSNIGAGFDVHWYQQVPGTAPKLLIYNTDNRASGVPDRFSASKSGTSASLAITGLQAEDEADYYCQSYDNSLSGVFGGGTKLTVL
B20: MPK191 (antibody, V domains shown)
VH: B19 VH with Q1E, S85G, T107A, D108G, S111T, I119V
VL: B17 VL with D1E, T7S, E17D, K32N, T56S, S92D, S93N
B21: MPK167 (antibody, V domains shown)
VH: B19 VH with Q1E, A9P, G24A, K59Q, T107A, D108G
VL: B17 VL with D1E, T5M, T7S, K32N, R39S, T43A, Y87F, S93N
B22: MPK182 (antibody, V domains shown)
VH: EVQLVESGGGLVKPGGSLRLSCTASLSTFSDYYMTWIRQAPGKGLEWLGYISGSQSQTNLADSVKGRFTISRDNAKKSLYLQMNSLRVEDTATYFCARVHLWFGDLNALDLWGQGTKVTVSS
VL: B19 VL with S74F

What was measured:
[1] = molecular target: MPV fusion glycoprotein with the D280N mutation (MPV-F N280) (metapneumovirus); experiment: SPR; F protein loaded on streptavidin sensors, mAb in solution
[2] = molecular target: MPV fusion glycoprotein without the D280N mutation (MPV-F D280) (metapneumovirus); experiment: as above
[3] = molecular target: fusion glycoprotein of the MPV D280 used in the neutralization assay of Example 3 (metapneumovirus (strain not stated)); experiment: cell-based or functional assay
[4] = molecular target: fusion glycoprotein of the RSV used in the neutralization assay of Example 1 (respiratory syncytial virus (strain not stated)); experiment: cell-based or functional assay
[5] = molecular target: RSV fusion glycoprotein (RSV-F) of the RSV used in the neutralization of Table 33 (respiratory syncytial virus, strain not stated); experiment: cell-based or functional assay
[6] = molecular target: fusion glycoprotein (F) of the MPV used in the neutralization of Table 34 (metapneumovirus); experiment: cell-based or functional assay
[7] = molecular target: RSV fusion glycoprotein (RSV-F) (respiratory syncytial virus (strain not stated)); experiment: SPR; sensors loaded with RSV-F, mAb in solution (Experiment 2)
[8] = molecular target: DS-Cav1 RSV F (respiratory syncytial virus); experiment: ELISA on DS-Cav1 RSV F
[9] = molecular target: MPV fusion glycoprotein with the D280N mutation (MPV-F N280) (metapneumovirus); experiment: biolayer interferometry (BLI), rIgG1 with M428L/N434S
[10] = molecular target: MPV fusion glycoprotein without the D280N mutation (MPV-F D280) (metapneumovirus); experiment: as above

Binder	Kd [1] [nM]	Kd [2] [nM]	MPV D280 Neutralization - IC50 [3] [µg/mL]	RSV Neutralization - IC50 [4] [µg/mL]	Kd [7] [nM]	further results
B1	1.2	0.001	0.0079	0.0241		
B2				0.00541		IC50 (ng/mL) in neutralization against RSV [5]: 1.2 ng/mL; IC50 (ng/mL) in neutralization against MPV [6]: > 2000 ng/mL
B3	2.6	0.001	0.0141	0.0265		
B4					0.62	
B5	0.001	0.001	0.0243	0.0787		
B6						EC50 [8]: 0.0472 µg/mL
B7						Kd [9]: 0.82 nM; Kd [10]: 0.039 nM
B8						EC50 [8]: 0.0425 µg/mL; Kd [9]: 0.64 nM; Kd [10]: 0.027 nM
B9						EC50 [8]: 0.0347 µg/mL
B10						EC50 [8]: 0.0251 µg/mL; Kd [9]: 0.55 nM; Kd [10]: 0.028 nM
B11						EC50 [8]: 0.0306 µg/mL
B12						Kd [9]: 0.78 nM; Kd [10]: 0.028 nM
B13	0.069	0.001	0.0152	0.0308		
B14	4.3	0.001	0.0101	0.018		
B15	5.5	0.001	0.0199	0.0296		
B16	1.9	0.001	0.0081	0.0149		
B17				0.001	0.001	
B18				0.0011	0.001	
B19				0.0043	1.2	
B20				0.0012	0.029	
B21				0.001	0.011	
B22					2.8	
